The results in this text go back to US20250092135A1 (NANJING LEADS BIOLABS, published 2025).

The test concerns the target T1, human MUC16 protein (ECT_TM huMuc16) on 293T cells (human).
T1 chain: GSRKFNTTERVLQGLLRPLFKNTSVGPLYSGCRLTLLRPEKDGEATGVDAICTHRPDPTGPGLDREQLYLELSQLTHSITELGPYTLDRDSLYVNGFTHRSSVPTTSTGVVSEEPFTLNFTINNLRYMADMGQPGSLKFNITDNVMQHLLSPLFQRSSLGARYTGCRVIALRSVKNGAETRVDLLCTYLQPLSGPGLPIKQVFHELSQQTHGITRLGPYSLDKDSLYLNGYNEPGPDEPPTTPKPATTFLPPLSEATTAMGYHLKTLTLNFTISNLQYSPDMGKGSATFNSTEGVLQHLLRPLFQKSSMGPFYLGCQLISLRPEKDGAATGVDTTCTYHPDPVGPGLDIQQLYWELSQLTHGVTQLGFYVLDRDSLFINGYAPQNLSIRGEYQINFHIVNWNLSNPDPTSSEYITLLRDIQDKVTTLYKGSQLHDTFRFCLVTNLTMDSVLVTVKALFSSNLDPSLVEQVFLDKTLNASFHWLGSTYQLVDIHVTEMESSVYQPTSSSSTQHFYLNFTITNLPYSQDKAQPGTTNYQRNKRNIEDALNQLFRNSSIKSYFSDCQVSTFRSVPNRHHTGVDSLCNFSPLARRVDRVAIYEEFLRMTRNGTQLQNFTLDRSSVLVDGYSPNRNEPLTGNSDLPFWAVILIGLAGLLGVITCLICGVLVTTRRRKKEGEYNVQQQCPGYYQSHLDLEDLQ
Put plainly: flow cytometry, 293T/hMUC16 cells, PE anti-human IgG Fc secondary, MFI; EC50 table under the plot, unit from the axis Conc.(nM). The protocol:
The serially diluted anti-human MUC16 antibodies (at an initial concentration of 200 nM, 4-fold dilution, 8 points in total) obtained in the present application were added to the cells, and the cells were incubated at 4° C. for 30 min. The cells were washed twice with PBS, and then fluorescent secondary antibody R-PE-conjugated AffiniPure Goat Anti-Human IgG, Fcγ Fragment Specific (Jackson ImmunoResearch, Cat #109-116-098) was added. The cells were incubated at 4° C. for 30 min. The cells were washed twice with PBS and then resuspended, and finally, fluorescence signals were detected using a BD Accuri C5 (BD Bioscience) flow cytometer.
(A flow cytometer gives signals particle by particle.)

B1: anti-MUC16 antibody 776.1(C33S) (antibody, human IgG1, kappa, L234A L235A, V domains shown)
VH: EVQLQQSGPELVKPGASVKISCKASGYTFTDYNIHWVKQSHGKILEWIGYIYPYNGVSDYNQNFKSKATLIVDNSSNTAYMELRSLTSEDSAVYYCARWDFGSGYYFDYWGQGTTLTVSS
VL: QIVLSQSPAILFASPGETVTMTCRASSSVIYMSWNQQKPGSSPKPWIYGTSTLASGVPTRFSGSGSGTSYSLTISRVEAEDAATYYCQQWSSNPFTFGSGTKLEIKR
B1 had a half-maximal effective concentration (EC50) of 12.9 nM.

As usually defined, the EC50 is the midpoint of the concentration-response curve. Read a low EC50 as higher potency in that assay.
